# Assay: yeast display, Sf9 membrane polyspecificity reagent, FACS + sequencing; frameworks hold sequencing errors
# Procedure, shortened: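 Synthetic nanobody libraries on Saccharomyces cerevisiae BJ5465 were galactose-induced for 36–48 hours, stained 1 hour at 4 °C with 10% biotinylated, detergent-solubilized Sf9 membrane reagent and enriched on streptavidin microbeads. FACS then separated cells into low and high (top ~1%) gates by anti-HA (expression) and streptavidin (reagent binding) fluorescence. Genes were colony-PCR amplified, MiSeq 2 × 250 sequenced and CDR-length filtered. A clone's polyreactivity label is that of its gate of origin.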
row,Sequence,polyreactivity (PSR sort gate)
1,QVQLVESGGGLVQAGGSLRLRCAASGSTFRANAMGWYRQAPGKERELVAAISWSGGRTYYADSVKGRFTISRDNAKNTVYLQMNSLKPEDTAVYYCAAPKLTSYDSWGQGTQVTVSS,high polyreactivity
2,QVQLVESGGGLVQAGGSLRLRCAASGSTFSGYAMGWYRKGPGKERELVAAISSGGGSTYYADSVKGRFTISRYNAKNTVYLQMNSLKPEDTDVYYCATGYPWYCGQGTQVTVSS,high polyreactivity
3,QVQLVESGGGLVQAGGSLRLRCAASGSTFTGNTMGWYRQAPGKERELVAAITYRGGSTYYADSVKGRLTISRDNAKNTVYLQMNSLKPEDTAVYYCAAAGYYYSVEGAGPRYDYWGQGTQVTVSS,low polyreactivity
4,QVQLVESGGGLVQAGGSLRLRCAASGSTSPFNAMGWYRQAPGKERELVASITSSGSTNYADSVKGRFTISRDNAKNTVYLQINSLKPEDTAVYYCASEGVVSETFYAYWGQGTQVTVSS,low polyreactivity
5,QVQLVESGGGLVQAGGSLRLRCAATGFISVTYAMGWYRQAPGKERELVAAITYSGGSTYYADSVKGRFTISRDNAKNTVYLQMNSLKPEDTAVYYCATEPQSDYSYDYWGQGTQVTVSS,low polyreactivity
6,QVQLVESGGGLVQAGGSLRLRCAATGHIFYYYTMGWSRQAPGKERELVAGITIGGSTNYADSVKGRFTISRDNAKNTVYLQMKSLKPEDTAVYYCNVVKYVYIYSYWEYYYWGQGTQVTVSS,low polyreactivity
7,QVQLVESGGGLVQAGGSLRLRCADSGRTFRYNAMGWYRQAPGKERELVAGIRWSGDRTYYADSVKGRFTISHDNAKNTVYLQMNSLKPEDTAVYSCNKVYHPGYGVRATYDYWGQGTQVTVSS,high polyreactivity
8,QVQLVESGGGLVQAGGSLRLRGAASGFTYLYYAMGWYRQAPGKERELVAAITWSGDSTYYADSVKGRFTISRDNAKNTVYLQMNSLKPEDTAVYYCANGGVTFGTVVRGVDGDYWGQGTQVTVSS,low polyreactivity
9,QVQLVESGGGLVQAGGSLRLRGAASGGIISSYVLGWYRQAPGKERELVAAISRSGGSTYYADSVKGRFTISRDNAKNTVNLQMNSLKPEDTAVYYCAAVLQTRYNYWGQGTQVTVSS,high polyreactivity
10,QVQLVESGGGLVQAGGSLRLRWAASGRIFHHYAMGWYRPAPGKERELVAAISSGGSTYYADSVKGRFTISRDNAKNTVYLQMNSLKPEVTAVYYCAAYWYSPEYDYWGQGTQVTLSS,high polyreactivity
11,QVQLVESGGGLVQAGGSLRLRWAASGRIFLNYAMGLYRQEPGKEREVVAAISRTGGRKYYADSVKGRFTISRDTEKNTVYLQMYSLKPEDTAVYYCDAYYSGFLTYGLDYWGQGTQVTLSS,high polyreactivity
12,QVQLVESGGGLVQAGGSLRLSAASGSTLAGNTMGWYRQAPGKERELVAAINDSGGSTYYADSVKGRFTISRDNAKNTVYLQMNSLKPEETAVYYCNADGSAYIEDGYDYWGQGTQVTVSS,low polyreactivity
13,QVQLVESGGGLVQAGGSLRLSCAAAARTFPYNAMGWYRQAPGQERELVATISRRTGTTYYADSVKGRFTISRDNAKNTVYLQMNSLKPEDTAVYFCAATGFGLRRLFRGDYWGQGTQVTVSS,high polyreactivity
14,QVQLVESGGGLVQAGGSLRLSCAAAGFTFSVNAMGWYRQAPGKERELVAAISSRGSITYYADSVKGRFTISRDNAKNTVYLQMNSLKPEDTAVYYCNAYKYKSPGDYWGQGTQVTVSS,high polyreactivity
15,QVQLVESGGGLVQAGGSLRLSCAACGFTFWKYAMGWYRQAPGKERELVAAITSGGNTYYADSVKGRFTISRDNAKNTVYLQMNSLKPEDTAVYYCATSGPRGWSLHDYWGQGTQVTVSS,high polyreactivity
16,QVQLVESGGGLVQAGGSLRLSCAACGRIFGYYAMGWYRQAPGKERELVAAITGVGRTNYADSVKGRFTISRDNAKNTVYLQMNSLKPEDTAVYYCNVVRVYRYDYWGQGTQVTVSS,high polyreactivity
17,QVQLVESGGGLVQAGGSLRLSCAACGRTFGWYAMGWYRQAPGTERELVATISSRGGATYYADSVKGRFTISRDNAKNTVYFQMNSLKPEDTAVYYCAAYSRTFEGHRGGYWGQGTQVTVSS,high polyreactivity
18,QVQLVESGGGLVQAGGSLRLSCAACGRTLVRYAMGWYRQAPGKERELVATITRGGSTNYADSVKGRFTISRDNAKNTVYLQMNSLKPEDTAVYYCARDLYYSSRYSPYGRYDYWGQGTQVTVSS,high polyreactivity
19,QVQLVESGGGLVQAGGSLRLSCAACGRTSSIYAMGWYRQAPGKERELVATITGGAVSTSYADSVKGRFTISRDNAKNTVYLQMNSLKPEDSAVYYCADDHWRYRSRPVNYWGLGTQVTVSS,high polyreactivity
20,QVQLVESGGGLVQAGGSLRLSCAACGSIFDYYTMGWYRQAPGKEREFVAGISDSGGSTNYADSVKGRFTISRDNAKNTVYLQINSLKPEDTAVYYCNAEYVGWFYKYDYWGQGTQVTVSS,high polyreactivity
21,QVQLVESGGGLVQAGGSLRLSCAACGSIIYRNAMGWYRPAPGKERELVAAIRTSSGSTYYADSVKGRFTISRDNAKNTVYLQMNSLKPEDTAVYYCAAPRLYGYYSWGQGTQVTVSS,low polyreactivity
22,QVQLVESGGGLVQAGGSLRLSCAACGSTFFRNAMGWYRQAPGKERELVAAISKSGTSTYYADSVKGRFTISRDNAKNTVYLQMNSLKPEDTAVYYCAADSRYPWRGDYWGQGTQVTVSS,high polyreactivity

row,Sequence,polyreactivity (PSR sort gate)
1,QVQLVESGGGLVQAGGSLRLSCAAMGWYRPAPGKERELVATITWSGGSTYYADSVKGRFTISRDNAKNTVYLQMNSLKPEDNAVYYCNARATLLSPANTIRGYDYWGQGTQVTVSS,low polyreactivity
2,QVQLVESGGGLVQAGGSLRLSCAAPGSTFVRYAMGWYRQAPGKERELVAAISKSGGSTYYADSVKGRFTISRDNAKNTVYLQMYSLKPEDTAVYYCAATTTRYSYEYWGQGTQVTVSS,low polyreactivity
3,QVQLVESGGGLVQAGGSLRLSCAASAFTFGNYAMGWYRQAPGKERELVAVISRGGSTYYADSVKGRFTISRDYAKNTVYLQMNSLKPEDTAVYFCAARAFPPYGYDYWGQGTQVTVSS,high polyreactivity
4,QVQLVESGGGLVQAGGSLRLSCAASAFTFYSNAMGWYRQAPGTEREVVASISASGGSTYYADSVKGRFTISRDNAKNSVYLQMNSLKPEDTAVYYCAVYWSYLFDYLGQGTQVTVSS,high polyreactivity
5,QVQLVESGGGLVQAGGSLRLSCAASAFTLARYAMGWYRQAPGKERELVAAITKRGGSTYYADSVKGRFTISRDNAKKTVYLQMNSLKPEDTAVYYCNGASRYSQTFEFDYWGQGTQVTVSS,high polyreactivity
6,QVQLVESGGGLVQAGGSLRLSCAASAFTLYPYAKGWYRQAPGKERELVAAISGSGGSTYYADSVKGRFTISRDNAKNTVYLQMNRLKPEDTAVYYCAARYLDVRPFYYWGQGTQVTVSS,high polyreactivity
7,QVQLVESGGGLVQAGGSLRLSCAASAGIIRTYAMGWYRQAPGKEMELVAAITFSAGSTFYADSVKGRFTISRDNAKNTVYLQMNSLKPEDTAVYYCNKDGGGDSYWYDYWGQGTQVTVSS,low polyreactivity
8,QVQLVESGGGLVQAGGSLRLSCAASAITLDGNAMGWYIQAPGKERELVAAITSGGGTNYADSVKGRFTISRDNAKNTVYLEMNSLKQEDTAVYYCAETGRLLTSNYWGLGTQVTVSS,low polyreactivity
9,QVQLVESGGGLVQAGGSLRLSCAASALIFKTYTMGWYRQAPGKEREFVAAITTSGGSTYYADSVKGRFTISRDNAKNTVYLQMNSLKPEDTAVYYCAAVWWKSFQGSSYRMNYWGQGTQVTVSS,high polyreactivity
10,QVQLVESGGGLVQAGGSLRLSCAASARIYDLNAMGWYRQAPGKERELVAAITWSGDSTYYADSVKGRFTISRDTAKNTVYLQMNSLKPEDTAVYYCAAASRTSYSWVDYEFDYWGQGTQVTVSS,low polyreactivity
11,QVQLVESGGGLVQAGGSLRLSCAASASIFLVYAMGWYRQAPGKERELVAAISRSGRTYADSVKGRFTISRDNAKNTVYLQMNSLKPEDTAVYYCAAGTKRRFEGDYWGQGTQVTVSS,high polyreactivity
12,QVQLVESGGGLVQAGGSLRLSCAASASIVFTYVMGCYSQAPWKERELVSAITSDDNTNYADSVKGRFTISRVNAKNTVYLQMNSLKPEDTAVYYCNADTTLYPYYEYGYYDYDYWGHGTQVTVSS,low polyreactivity
13,QVQLVESGGGLVQAGGSLRLSCAASASTFLSYAMGWYRQAPGKERELVAAITSRGGSTYYADSVKGRFTISRDIAKNTVYLQMNSLKPEDTAVYYCATRLGYGDSKVRRPYSRFYYWGQGTQVTVSS,high polyreactivity
14,QVQLVESGGGLVQAGGSLRLSCAASASTLYRTAMGWYRPAPGKEREMVAAINYRGTRTYYADSVKGRFTISRDNAKNTVYLLMKSLNPEDTAVYYCAKDYSQFVTYPYDYWGQGTQVSVSS,low polyreactivity
15,QVQLVESGGGLVQAGGSLRLSCAASAYTFDGYAMGWYRQAPGKERELVAAINSGGGTYYADSVKGRFTISRDNAKNSVYLQMNSLKPEDTPVYYCNASVKPSNVWSRGYDYWGQGTQVTVSS,low polyreactivity
16,QVQLVESGGGLVQAGGSLRLSCAASDAMGWYRQAPGKERELVASISNGVSTNYADSVKGRFTISRDNAKNTVYLQMNSLKPEDTAVYYCAADAKTVGRDDLYWYEVEFDYWGQGTQVTVSS,low polyreactivity
17,QVQLVESGGGLVQAGGSLRLSCAASDTPSSSMLMGWYRQAPGKERQLVAAISGSDGTTYYADSVKGRFTISRDNAKNTVYLQMNSLKPEDTAVYYCAADDRVDSGYIKDDYWGQGTQVTVSS,low polyreactivity
18,QVQLVESGGGLVQAGGSLRLSCAASGATLVWNTMGWCRQAPGTERELVAGITSGGSTKYADSVKGRFTISRDNAKNTVYLQMKRLKPEDTAVYYCAADCYGQAIFIYDYWGQGTQVTVSS,low polyreactivity
19,QVQLVESGGGLVQAGGSLRLSCAASGCIFEIYAMGWYRQAPGKERELVAAITDSGGSTYYADSVKARFTISRDNANNTVYLQMNSLKPEDTAVYYCAAVGNSYETLLFYYWGQGTQVTVSS,low polyreactivity
20,QVQLVESGGGLVQAGGSLRLSCAASGCIFYINTMGWYRQAPGKERELVAAISQSGVGTSYADSVKGRFTISRDNAKNTVYLQMNSLIPEDTAVYYCATDFARSDVVERFDYWGQGTQVTVSS,low polyreactivity
21,QVQLVESGGGLVQAGGSLRLSCAASGCIFYSNAMGWYRQAPGKERELVAAIARSGGSTYYADSVKGRFTISRDNAKNPVYLQMNSLKPEDTAVYYCNAKFRKADYDSWGQGTEVTVSS,high polyreactivity

# From the nanobody polyreactivity screen of Harvey et al. (2022)
